Results: paper PMC6857237

How the values were obtained:
[1] = target: Olfm1^BMY (olfactomedin-1 natural short isoform BMY, residues 17–153), disulfide-linked tetramer (mouse (Mus musculus)); assay: SAXS; ESRF BM29, 0.615 mg/mL in SEC buffer (150 mM NaCl, 2 mM CaCl2, 20 mM HEPES pH 7.5), 277 K; mass from I0
[2] = target: Olfm1^BMY (olfactomedin-1 natural short isoform BMY, residues 17–153), disulfide-linked tetramer (mouse (Mus musculus)); assay: SEC-MALS; analytical Superdex200 Increase 10/300, room temperature, SEC buffer (150 mM NaCl, 2 mM CaCl2, 20 mM HEPES pH 7.5), 0.5 mL/min; aldolase as calibration standard
[3] = target: Olfm1^BMY (olfactomedin-1 natural short isoform BMY, residues 17–153), disulfide-linked tetramer (mouse (Mus musculus)); assay: non-reducing SDS-PAGE; Coomassie-stained SDS-PAGE of purified protein with and without DTT; covalent (disulfide-linked) oligomeric state

Olfm1^BMY (olfactomedin-1 natural short isoform BMY, residues 17–153), disulfide-linked tetramer (natural protein), sequence (O88998 17-485): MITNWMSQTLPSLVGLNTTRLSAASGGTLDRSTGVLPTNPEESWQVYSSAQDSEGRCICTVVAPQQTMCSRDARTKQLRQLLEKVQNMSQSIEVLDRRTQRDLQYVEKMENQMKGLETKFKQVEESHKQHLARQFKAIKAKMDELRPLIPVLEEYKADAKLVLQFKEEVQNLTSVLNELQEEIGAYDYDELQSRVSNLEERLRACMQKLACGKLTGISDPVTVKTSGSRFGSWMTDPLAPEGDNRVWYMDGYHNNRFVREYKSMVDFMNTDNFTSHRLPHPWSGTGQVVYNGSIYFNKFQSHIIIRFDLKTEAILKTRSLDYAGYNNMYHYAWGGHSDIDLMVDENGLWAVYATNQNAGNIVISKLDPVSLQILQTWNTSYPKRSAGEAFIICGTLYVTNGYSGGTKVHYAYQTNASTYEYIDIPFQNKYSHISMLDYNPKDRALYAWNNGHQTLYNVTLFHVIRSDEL

stoichiometry N [1]: 4
stoichiometry N [2]: 4
stoichiometry N [3]: 4
Substance: Olfm1^BMY (olfactomedin-1 natural short isoform BMY, residues 17–153), disulfide-linked tetramer (natural protein)
